Laboratory results taken from patent US20110104705A1, “Musclin receptor and use thereof” (Takeda Pharmaceutical Company Limited, priority 2006, published 2011).

Target: T1, hNpr3 (Homo sapiens, UniProt P17342)
T1 construct: host or cells: FreeStyle293 cells (transient transfection)
T1 sequence (P17342 27-540 isoform P17342-2 limits assumed): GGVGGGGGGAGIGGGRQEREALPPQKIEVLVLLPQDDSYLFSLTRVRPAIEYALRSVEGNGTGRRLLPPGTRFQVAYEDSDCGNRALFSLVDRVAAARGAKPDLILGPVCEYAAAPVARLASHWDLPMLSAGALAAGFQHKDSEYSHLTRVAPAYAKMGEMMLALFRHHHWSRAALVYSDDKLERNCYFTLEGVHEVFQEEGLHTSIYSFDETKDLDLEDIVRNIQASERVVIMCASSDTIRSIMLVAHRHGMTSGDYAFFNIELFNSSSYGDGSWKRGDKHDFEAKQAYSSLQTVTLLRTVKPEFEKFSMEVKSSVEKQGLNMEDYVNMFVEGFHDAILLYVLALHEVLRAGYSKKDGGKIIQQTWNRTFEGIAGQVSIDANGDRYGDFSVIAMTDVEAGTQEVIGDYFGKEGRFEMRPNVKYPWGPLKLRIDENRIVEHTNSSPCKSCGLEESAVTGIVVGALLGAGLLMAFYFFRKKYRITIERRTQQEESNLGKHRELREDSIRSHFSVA
Assay: Binding of biotin-labeled mMusclin to hNpr3-expressing FreeStyle293 cells (PE-labeled Streptavidin staining), with competition by unlabeled ligands
Settings: for change in the binding of labeled mMusclin in the presence of a known NPR3 ligand: competitor at 10 μM; for change in the binding of labeled mMusclin in the presence of a known NPR3 ligand / change in the binding of labeled mMusclin in the presence of the unlabeled protein: BK- or BC-labeled mMusclin 0.5 μg/ml, hNpr3-expressing FreeStyle293 cells; for change in the binding of labeled mMusclin in the presence of the unlabeled protein: competitor at 100 μg/ml; for binding of labeled mMusclin to cells transfected with hNpr3 expression vector: 0.5 μg/ml labeled mMusclin, 4° C. 30 minutes, 0.3 μg (Low) or 1.0 μg (high) hNpr3 vector per 1.0×10^6 FreeStyle293 cells
Method: A hNpr3 expression vector (hNpr3/pCMV6-XL4, NM_000908 Clone #PL1154_A07) was purchased from OriGene. 0.3 μg (Low) or 1.0 μg (high) of the hNpr3 expression vector was transfected transiently per 1.0×10^6 FreeStyle293 cells by a conventional method; 48 hours later, the cells were collected and suspended in PBS-1.0% BSA at 5×10^6 cells/ml. A 1-ml portion of each cell lyzate was incubated with a final concentration of 0.5 μg/ml of BK-mMusclin or BC-mMusclin at 4° C. for 30 minutes; after 1 time of washing, the lyzate was stained with PE-labeled Streptavidin, and the cells bound to each Musclin were analyzed. Also, incubation was performed in the presence of 100 μg/ml full-length mMusclin, mCA, or His-Tyr-Cys-mMusclin, or 10 μM ANP (Atrial Natriuretic Peptide, Rat, Mouse), CANP (Atrial Natriuretic Peptide 4-23—NH2 Des-[Gln18 Ser19 Gly20 Leu21 Gly22], Rat), or LANP (Atrial Natriuretic Peptide 104-126 Des-[Cys105 Cys121], Rat) (Phoenix Pharmaceuticals, Inc.), whereby changes in the binding of labeled mMusclin were examined.

In the case of “Atrial Natriuretic Peptide 104-126 Des-[Cys105 Cys121], Rat (SFGGRIDRIGAQSGLGNSFRY) [LANP, known ligand of the NPR3 molecule (Phoenix Pharmaceuticals, Inc.), reference compound]”, the “change in the binding of labeled mMusclin in the presence of a known NPR3 ligand” value (shortened to “change in the binding … of a known NPR3 ligand”) is reported as “the binding nearly disappeared”.

With “mCA: C-Terminal mMusclin (mCA) protein, cleaved from thioredoxin fusion (SFSGFGSPLDRLSAGSVEHRGKQRKAVDHSKKRFGIPMDRIGRNRLSSSRG)” the “change in the binding of labeled mMusclin in the presence of the unlabeled protein” value (“change in the binding … of the unlabeled protein” below) was “the binding nearly disappeared”.

In the case of “Atrial Natriuretic Peptide 4-23—NH2 Des-[Gln18 Ser19 Gly20 Leu21 Gly22], Rat [CANP, reference compound]”, the “change in the binding … of a known NPR3 ligand” value is reported as “the binding nearly disappeared”.

“Atrial Natriuretic Peptide, Rat, Mouse (SLRRSSCFGGRIDRIGAQSGLGCNSFRY) [ANP, known ligand of the NPR3 molecule (Phoenix Pharmaceuticals, Inc.), reference compound]” was tested, and the “change in the binding … of a known NPR3 ligand” value was “the binding nearly disappeared”.

B1: musclin: skeletal muscle specific secretory protein (protein, UniProt P61366 28-133, looked up)
Osteocrin: VDVTTTEAFDSGVIDVQSTPTVREEKSATDLTAKLLLLDELVSLENDVIETKKKRSFSGFGSPLDRLSAGSVDHKGKQRKVVDHPKRRFGIPMDRIGRNRLSNSRG
In the case of B1, the “bindability of musclin to natriuretic peptide receptors (NPR1, NPR2, NPR3)” value (summary statement) is reported as “binds specifically to the receptor NPR3”.

B2: BC-labeled mMusclin: His-Tyr-Cys-mMusclin labeled with about 1 molecule of biotin at the introduced Cys residue (Maleimide PEO2 Biotin) (protein)
chain: MGSSHHHHHHSSGLVPYGCHMLASQEFGTASLQSPPTAREEKSATELSAKLLRLDDLVSLENDVFETKKKRSFSGFGSPLDRLSAGSVEHRGKQRKAVDHSKKRFGIPMDRIGRNRLSSSRG
With B2 the “binding of labeled mMusclin to cells transfected with hNpr3 expression vector” value was “bound dependently on the amount of the hNpr3 gene introduced into the cells”.

B3: His-Tyr-Cys-mMusclin: His-tag Tyr Cys mouse musclin protein, ORF of SEQ ID NO:8 (protein)
chain: MGSSHHHHHHSSGLVPYGCHMLASQEFGTASLQSPPTAREEKSATELSAKLLRLDDLVSLENDVFETKKKRSFSGFGSPLDRLSAGSVEHRGKQRKAVDHSKKRFGIPMDRIGRNRLSSSRG
modifications: His-tag, Tyr, Cys
With B3 the “change in the binding … of the unlabeled protein” value was “the binding nearly disappeared”.

B4: BK-labeled mMusclin: labeled mMusclin incorporating about 5 molecules of biotin/1 molecule of mMusclin (Sulfo-NHS-LC-Biotin) (protein)
chain: LASQEFGTASLQSPPTAREEKSATELSAKLLRLDDLVSLENDVFETKKKRSFSGFGSPLDRLSAGSVEHRGKQRKAVDHSKKRFGIPMDRIGRNRLSSSRG
B4 was tested, and the “binding of labeled mMusclin to cells transfected with hNpr3 expression vector” value was “bound dependently on the amount of the hNpr3 gene introduced into the cells”.

B5: full-length mMusclin: purified full-length mouse musclin protein, cleaved from thioredoxin fusion, expressed in Escherichia coli (protein)
chain: LASQEFGTASLQSPPTAREEKSATELSAKLLRLDDLVSLENDVFETKKKRSFSGFGSPLDRLSAGSVEHRGKQRKAVDHSKKRFGIPMDRIGRNRLSSSRG
In the case of B5, the “change in the binding … of the unlabeled protein” value is reported as “the binding nearly disappeared”.
